Experiments:
[1] = target: PucD LH2 α-apoprotein (α-polypeptide encoded by the pucBAd gene pair) (Rhodopseudomonas palustris (endogenous in the ΔpucBAabce mutant; genome sequence of strain CGA009)); assay: crystal structure; PucD LH2 in 20 mM Tris-Cl pH 8.0, 0.15% DM, 3.0% HPT, PEG 600, 50 mM CaCl2, 16 °C; data to 4.71 Å; molecular replacement with the nonameric Rps. acidophila 10050 LH2, jelly-body refinement
[2] = target: PucD LH2 β-apoprotein (β-polypeptide encoded by the pucBAd gene pair) (Rhodopseudomonas palustris (endogenous in the ΔpucBAabce mutant; genome sequence of strain CGA009)); assay: as above

Substance: PucD LH2 α-apoprotein (α-polypeptide encoded by the pucBAd gene pair) (natural protein)
- stoichiometry N [1]: 9

Substance: PucD LH2 β-apoprotein (β-polypeptide encoded by the pucBAd gene pair) (natural protein)
- stoichiometry N [2]: 9
